Test results from article PMC9574934, “Targeting the Phosphatidylserine-Immune Checkpoint with a Small-Molecule Maytansinoid Conjugate” (Journal of Medicinal Chemistry, 2022).

Tests used:
[1] = Single intravenous dose pharmacokinetic study; conditions: for AUC(0-24 hr) Conjugate: intact conjugate; for AUC(0-24 hr) Conjugate / CL / Vss / AUC(0-24 hr) Drug: male ICR mice; for AUC(0-24 hr) Conjugate / CL / Vss: 5 mg/kg intravenous; for CL / Vss: n = 3; for AUC(0-24 hr) Drug: 5 mg/kg intravenous of conjugate; for loss of AUC: intact conjugate AUC relative to 40a
Experimental: Six-week-old male ICR mice, from the Biolasco Taiwan, were divided into groups of three and dosed at 5 mg/kg intravenously. Blood samples were drawn from each animal at time points of 0.003, 0.083, 0.25, 0.5, 1, 2, 4, 6, 8, and 24 h and stored on ice (0–4 °C). With centrifugation (3000 rpm for 15 min at 4 °C in a Beckman Model Allegra 6R centrifuge), plasma was separated from the blood and stored in frozen conditions (−20 °C). […] The mice were sacrificed, and the blood samples of 0.5 mL each and tumor samples were collected at 0.5, 2, 6, 24, 72, and 168 h after administration. Each time point group included 4 mice. Mouse blood samples were collected in EDTA tubes and centrifuged at 13,000 rpm for 5 min at 4°C for plasma collection. Plasma and the harvested tumor samples were stored at −80°C until use. Fifty microliters of mouse plasma or the sample of tumor homogenated in ddH2O with dilution ratio of 1:3 (w/v) by MiniBeadbeater-16 (BioSpec Products Inc., OK, USA) was mixed with 100 μL of acetonitrile containing 250 ng/mL BPR0L187. The mixture was vortexed for 30 s and then centrifuged at 15000g for 20 min. The supernatant was transferred to a clean tube, and 15 μL of the supernatant was injected onto LC/MS/MS. Plasma samples were analyzed by liquid chromatography tandem mass spectrometry (LC/MS/MS). The chromatographic system Agilent 1200 series LC system and an Agilent ZORBAX Eclipse XDB-C8 column (5 μm, 3.0 × 150 mm) interfaced to an MDS Sciex API4000 tandem mass spectrometer equipped with an ESI in the positive scanning mode at 600 °C was used. Data acquisition was collected via multiple reactions monitoring (MRM). A gradient system was employed for the separation of analyte and IS. Mobile phase A was 10 mM ammonium acetate aqueous solution containing 0.1% formic acid. Mobile phase B was acetonitrile. The gradient profile was as follows: 0.0–1.1 min, 50% B; 1.2–3.7 min, 55%B–90%B; 3.8–5.0 min, 90%B–50%B. The flow rate was 1.5 mL/min. The autosampler was programmed to inject 15 μL of the sample every 5 min.

[2] = test system: MIA PaCa-2 human xenografts; assay: MIA PaCa-2 xenograft antitumor efficacy
Experimental: Cancer cells, suspending in phenol red free medium/DPBS, were mixed with Matrigel (356237, BD Biosciences, San Jose CA, USA) in a 1:1 ratio. Human pancreatic cancer MIA PaCa-2 (1 × 10^6 cells) or triple-negative breast cancer HCC1806 (1 × 10^6cells) cells were subcutaneously inoculated to left flanks of male nude mice 6 weeks old (Biolasco, Taiwan) or female nude mice 6 weeks old by using a 1 mL syringe (needle 24G × 1 in., 0.55 × 25 mm; TERUMO). Tumor dimensions were measured twice a week with an electronic caliper (FOW54-200-777, PRO-MAX, Newton, Massachusetts, USA), and the volume of the subcutaneously growing tumor in mm^3 was calculated by the following formula: volume = (length × width[2])/2. Conjugates were formulated 10% DMA/20% Cremophor EL/70% injectable solution of 5% dextrose (D5W) for treating MIA PaCa-2 and HCC1806 xenograft tumors. […] Body weight of the mice and tumor volume were measured twice weekly.

[3] = MIA PaCa-2 xenograft, 2 mg/kg intravenous (Figure S4)
[4] = 1 mg/kg intravenously twice weekly for two weeks (Figure 4)

Structure (SMILES) | AUC(0-24 hr) Conjugate [1] | CL [1] | Vss [1] | AUC(0-24 hr) Drug ([1]; released payload 14) | antitumor activity [2, 3] | body weight change during treatment [2, 3] | antitumor efficacy [2, 4] | body weight change during treatment [2, 4] | loss of AUC [1] | AUC(0-24 hr) Drug ([1]; released payload 16)
COc1cc2cc(c1Cl)N(C)C(=O)CC(OC(=O)C(C)N(C)C(=O)CCSSCCC(=O)NCCCCOc1cc(CN(Cc3ccccn3)Cc3ccccn3)cc(CN(Cc3ccccn3)Cc3ccccn3)c1)C1(C)OC1C(C)C1CC(O)(NC(=O)O1)C(OC)C=CC=C(C)C2.O=[N+]([O-])[O-].O=[N+]([O-])[O-].O=[N+]([O-])[O-].O=[N+]([O-])[O-].[Zn+2].[Zn+2] [Compound 27a, (1S,2R,3S,5S,6S,16E,18Z,20R,21S)-11-Chloro-21-hydroxy-12,20-dimethoxy-2,5,9,16-tetramethyl-8,23-dioxo-4,24-dioxa-9,22-diazatetracyclo[19.3.1.1.^10,140^3,5]hexacosa-10(26),11,13,16,18-pentaen-6-yl (2S)-2-[{3-[(3-{[4-(3,5-bis{[bis(Pyridin-2-ylmethyl)amino]methyl}phenoxy)butyl]amino}-3-oxopropyl)disulfanyl]propanoyl}(methyl)amino]propanoate·2[Zn(NO3)2]] | 7051 ng·h/mL | 11.5 mL/min/kg | 2.6 L/kg | 462 ng·h/mL | exhibited antitumor activities | significant body weight loss |  |  |  | 
COc1cc2cc(c1Cl)N(C)C(=O)C[C@H](OC(=O)[C@H](C)N(C)C(=O)CCSSc1ccc(C(=O)NCCCCOc3cc(CN(Cc4ccccn4)Cc4ccccn4)cc(CN(Cc4ccccn4)Cc4ccccn4)c3)cc1)[C@]1(C)O[C@H]1[C@H](C)[C@@H]1C[C@@](O)(NC(=O)O1)[C@H](OC)/C=C\C=C(/C)C2.O=[N+]([O-])[O-].O=[N+]([O-])[O-].O=[N+]([O-])[O-].O=[N+]([O-])[O-].[Zn+2].[Zn+2] [Compound 27b, (1S,2R,3S,5S,6S,16E,18Z,20R,21S)-11-Chloro-21-hydroxy-12,20-dimethoxy-2,5,9,16-tetramethyl-8,23-dioxo-4,24-dioxa-9,22-diazatetracyclo[19.3.1.1.^10,140^3,5]hexacosa-10(26),11,13,16,18-pentaen-6-yl (2S)-2-[{3-[(4-{[4-(3,5-bis{[bis(Pyridin-2-ylmethyl)amino]methyl}phenoxy)butyl]carbamoyl}phenyl)disulfanyl]propanoyl}(methyl)amino]propanoate·2[Zn(NO3)2]] | 318 ng·h/mL | 294 mL/min/kg | 83 L/kg | 216 ng·h/mL | exhibited antitumor activities | significant body weight loss |  |  |  | 
COc1cc2cc(c1Cl)N(C)C(=O)C[C@H](OC(=O)[C@H](C)N(C)C(=O)CCSSCCC(=O)NCc1ccc(CNC(=O)COCCOCCOCC(=O)N(CCCCOc3cc(CN(Cc4ccccn4)Cc4ccccn4)cc(CN(Cc4ccccn4)Cc4ccccn4)c3)Cc3ccc(-c4ccccc4)cc3)cc1)[C@]1(C)O[C@H]1[C@H](C)[C@@H]1C[C@@](O)(NC(=O)O1)[C@H](OC)/C=C\C=C(/C)C2.O=[N+]([O-])[O-].O=[N+]([O-])[O-].O=[N+]([O-])[O-].O=[N+]([O-])[O-].[Zn+2].[Zn+2] [Compound 30] | 39025 ng·h/mL | 2.5 mL/min/kg | 0.5 L/kg | 242 ng·h/mL |  |  |  |  |  | 
CCCCCC(=O)Nc1cccc(CN(Cc2cc(CN(Cc3ccccn3)Cc3cccc(NC(=O)CCCCC)n3)cc(OCCCCNC(=O)CCSSCCC(=O)N(C)[C@@H](C)C(=O)O[C@H]3CC(=O)N(C)c4cc(cc(OC)c4Cl)C/C(C)=C/C=C\[C@@H](OC)[C@@]4(O)C[C@H](OC(=O)N4)[C@@H](C)[C@@H]4O[C@@]34C)c2)Cc2ccccn2)n1.O=[N+]([O-])[O-].O=[N+]([O-])[O-].O=[N+]([O-])[O-].O=[N+]([O-])[O-].[Zn+2].[Zn+2] [Compound 33, (1S,2R,3S,5S,6S,16E,18Z,20R,21S)-11-Chloro-21-hydroxy-12,20-dimethoxy-2,5,9,16-tetramethyl-8,23-dioxo-4,24-dioxa-9,22-diazatetracyclo[19.3.1.1.^10,140^3,5]hexacosa-10(26),11,13,16,18-pentaen-6-yl (2S)-2-[{3-[(3-{[4-(3,5-bis{[{[6-(Hexanoylamino)pyridin-2-yl]methyl}(pyridin-2-ylmethyl)amino]methyl}phenoxy)butyl]amino}-3-oxopropyl)disulfanyl]propanoyl}(methyl)amino]propanoate·2[Zn(NO3)2]] | 14379 ng·h/mL | 6.8 mL/min/kg | 0.5 L/kg | 270 ng·h/mL | exhibited antitumor activities | significant body weight loss |  |  |  | 
CCCCCC(=O)Nc1cccc(CN(Cc2cc(CN(Cc3ccccn3)Cc3cccc(NC(=O)CCCCC)n3)cc(OCCCCNC(=O)COCCOCCOCC(=O)NCc3ccc(CNC(=O)CCSSCCC(=O)N(C)[C@@H](C)C(=O)O[C@H]4CC(=O)N(C)c5cc(cc(OC)c5Cl)C/C(C)=C/C=C\[C@@H](OC)[C@@]5(O)C[C@H](OC(=O)N5)[C@@H](C)[C@@H]5O[C@@]45C)cc3)c2)Cc2ccccn2)n1.O=[N+]([O-])[O-].O=[N+]([O-])[O-].O=[N+]([O-])[O-].O=[N+]([O-])[O-].[Zn+2].[Zn+2] [Compound 36] | 14244 ng·h/mL | 6.0 mL/min/kg | 0.4 L/kg | 640 ng·h/mL |  |  | potent antitumor efficacies | without apparent body weight loss |  | 
CCCCCC(=O)Nc1cccc(CN(Cc2cc(CN(Cc3ccccn3)Cc3cccc(NC(=O)CCCCC)n3)cc(OCCCCN(Cc3ccc(-c4ccccc4)cc3)C(=O)COCCOCCOCC(=O)NCc3ccc(CNC(=O)CCC(C)(C)SSCCC(=O)N(C)[C@@H](C)C(=O)O[C@H]4CC(=O)N(C)c5cc(cc(OC)c5Cl)C/C(C)=C/C=C\[C@@H](OC)[C@@]5(O)C[C@H](OC(=O)N5)[C@@H](C)[C@@H]5O[C@@]45C)cc3)c2)Cc2ccccn2)n1.O=[N+]([O-])[O-].O=[N+]([O-])[O-].O=[N+]([O-])[O-].O=[N+]([O-])[O-].[Zn+2].[Zn+2] [Compound 40b] | 88387 ng·h/mL | 1.0 mL/min/kg | 0.2 L/kg | 91 ng·h/mL |  |  |  |  | ~20% | 
CCCCCC(=O)Nc1cccc(CN(Cc2cc(CN(Cc3ccccn3)Cc3cccc(NC(=O)CCCCC)n3)cc(OCCCCN(Cc3ccc(C(=O)NCCOCCOCCNC(=O)CCSSC(C)(C)CCC(=O)N(C)C(C)C(=O)OC4CC(=O)N(C)c5cc(cc(OC)c5Cl)CC(C)=CC=CC(OC)C5(O)CC(OC(=O)N5)C(C)C5OC45C)cc3)C(=O)C3(c4ccc(Cl)cc4)CCCCC3)c2)Cc2ccccn2)n1.O=[N+]([O-])[O-].O=[N+]([O-])[O-].O=[N+]([O-])[O-].O=[N+]([O-])[O-].[Zn+2].[Zn+2] (centres unmarked) [Compound 43] | 84916 ng·h/mL | 1.0 mL/min/kg | 0.2 L/kg |  |  |  |  |  | ~20% | 48 ng·h/mL
